# Source: the Human Domainome abundance scans (Beltran et al. 2025)
# ± gives the uncertainty stated by the source.
# B1: Ankyrin repeat and SAM domain-containing protein 6, residues 774 to 836; numbered along this chain, Q68DC2 (parent)
# chain: DEDELTGILKKLSLEKYQPIFEEQEVDMEAFLTLTDGDLKELGIKTDGSRQQILAAISELNAG
# Variants of: B1
# Assay: abundance fitness (aPCA) (normalised: wild type 0, dead -1); higher = more abundant; growth selection in yeast, the domain comes from the species named
# Conditions: Homo sapiens
row,Variant,abundance fitness
1,DEDELTGILKKLSLEKYQPIFEEQEVDMEAFLTLTDGDLKELGIKTDGSRQQIEAAISELNAG [L54E],-0.24 ± 0.065
2,DEDELTGILKKLSLEKYQPIFEEQEVDMEAFLTLTDGDLKELGIKTDGSRQQICAAISELNAG [L54C],-0.075 ± 0.06
3,DEDELTGILKKLSLEKYQPIFEEQEVDMEAFLTLTDGDLKELGIKTDGSRQQIFAAISELNAG [L54F],-0.757 ± 0.093
4,DEDELTGILKKLSLEKYQPIFEEQEVDMEAFLTLTDGDLKELGIKTDGSRQQIDAAISELNAG [L54D],-0.59 ± 0.11
5,DEDELTGILKKLSLEKYQPIFEEQEVDMEAFLTLTDGDLKELGIKTDGSRQQIAAAISELNAG [L54A],-0.359 ± 0.056
6,DEDELTGILKKLSLEKYQPIFEEQEVDMEAFLTLTDGDLKELGIKTDGSRQMILAAISELNAG [Q52M],-0.302 ± 0.06
7,DEDELTGILKKLSLEKYQPIFEEQEVDMEAFLTLTDGDLKELGIKTDGSRQHILAAISELNAG [Q52H],-0.155 ± 0.094
8,DEDELTGILKKLSLEKYQPIFEEQEVDMEAFLTLTDGDLKELGIKTDGSRQPILAAISELNAG [Q52P],-0.715 ± 0.058
9,DEDELTGILKKLSLEKYQPIFEEQEVDMEAFLTLTDGDLKELGIKTDGSRQYILAAISELNAG [Q52Y],-0.574 ± 0.084
10,DEDELTGILKKLSLEKYQPIFEEQEVDMEAFLTLTDGDLKELGIKTDGSRQFILAAISELNAG [Q52F],-0.667 ± 0.098
11,DEDELTGILKKLSLEKYQPIFEEQEVDMEAFLTLTDGDLKELGIKTDGSRQGILAAISELNAG [Q52G],-0.279 ± 0.043
12,DEDELTGILKKLSLEKYQPIFEEQEVDMEAFLTLTDGDLKELGIKTDGSRQWILAAISELNAG [Q52W],-0.805 ± 0.074
13,DEDELTGILKKLSLEKYQPIFEEQEVDMEAFLTLTDGDLKELGIKTDGSRQEILAAISELNAG [Q52E],0.079 ± 0.062
14,DEDELTGILKKLSLEKYQPIFEEQEVDMEAFLTLTDGDLKELGIKTDGSRQKILAAISELNAG [Q52K],-0.095 ± 0.068
15,DEDELTGILKKLSLEKYQPIFEEQEVDMEAFLTLTDGDLKELGIKTDGSRQSILAAISELNAG [Q52S],-0.105 ± 0.041
16,DEDELTGILKKLSLEKYQPIFEEQEVDMEAFLTLTDGDLKELGIKTDGSRQTILAAISELNAG [Q52T],-0.2 ± 0.059
17,DEDELTGILKKLSLEKYQPIFEEQEVDMEAFLTLTDGDLKELGIKTDGSRQAILAAISELNAG [Q52A],-0.04 ± 0.048
18,DEDELTGILKKLSLEKYQPIFEEQEVDMEAFLTLTDGDLKELGIKTDGSRQNILAAISELNAG [Q52N],-0.193 ± 0.072
19,DEDELTGILKKLSLEKYQPIFEEQEVDMEAFLTLTDGDLKELGIKTDGSRQIILAAISELNAG [Q52I],-0.211 ± 0.069
20,DEDELTGILKKLSLEKYQPIFEEQEVDMEAFLTLTDGDLKELGIKTDGSRQCILAAISELNAG [Q52C],-0.12 ± 0.058
21,DEDELTGILKKLSLEKYQPIFEEQEVDMEAFLTLTDGDLKELGIKTDGSRQLILAAISELNAG [Q52L],-0.132 ± 0.04
22,DEDELTGILKKLSLEKYQPIFEEQEVDMEAFLTLTDGDLKELGIKTDGSRQDILAAISELNAG [Q52D],0.112 ± 0.073

row,Variant,abundance fitness
1,DEDELTGILKKLSLEKYQPIFEEQEVDMEAFLTLTDGDLKELGIKTDGSRWQILAAISELNAG [Q51W],-0.724 ± 0.059
2,DEDELTGILKKLSLEKYQPIFEEQEVDMEAFLTLTDGDLKELGIKTDGSRYQILAAISELNAG [Q51Y],-0.483 ± 0.12
3,DEDELTGILKKLSLEKYQPIFEEQEVDMEAFLTLTDGDLKELGIKTDGSRSQILAAISELNAG [Q51S],-0.082 ± 0.037
4,DEDELTGILKKLSLEKYQPIFEEQEVDMEAFLTLTDGDLKELGIKTDGSRTQILAAISELNAG [Q51T],-0.163 ± 0.045
5,DEDELTGILKKLSLEKYQPIFEEQEVDMEAFLTLTDGDLKELGIKTDGSRVQILAAISELNAG [Q51V],-0.233 ± 0.05
6,DEDELTGILKKLSLEKYQPIFEEQEVDMEAFLTLTDGDLKELGIKTDGSRQQCLAAISELNAG [I53C],-0.404 ± 0.071
7,DEDELTGILKKLSLEKYQPIFEEQEVDMEAFLTLTDGDLKELGIKTDGSRQQTLAAISELNAG [I53T],-0.345 ± 0.058
8,DEDELTGILKKLSLEKYQPIFEEQEVDMEAFLTLTDGDLKELGIKTDGSRQQLLAAISELNAG [I53L],-0.002 ± 0.039
9,DEDELTGILKKLSLEKYQPIFEEQEVDMEAFLTLTDGDLKELGIKTDGSRQQNLAAISELNAG [I53N],-0.451 ± 0.068
10,DEDELTGILKKLSLEKYQPIFEEQEVDMEAFLTLTDGDLKELGIKTDGSRQQFLAAISELNAG [I53F],-0.432 ± 0.1
11,DEDELTGILKKLSLEKYQPIFEEQEVDMEAFLTLTDGDLKELGIKTDGSRQQMLAAISELNAG [I53M],-0.062 ± 0.049
12,DEDELTGILKKLSLEKYQPIFEEQEVDMEAFLTLTDGDLKELGIKTDGSRQQALAAISELNAG [I53A],-0.331 ± 0.045
13,DEDELTGILKKLSLEKYQPIFEEQEVDMEAFLTLTDGDLKELGIKTDGSRQQPLAAISELNAG [I53P],-0.44 ± 0.055
14,DEDELTGILKKLSLEKYQPIFEEQEVDMEAFLTLTDGDLKELGIKTDGSRQQVLAAISELNAG [I53V],-0.104 ± 0.048
15,DEDELTGILKKLSLEKYQPIFEEQEVDMEAFLTLTDGDLKELGIKTDGSRQQSLAAISELNAG [I53S],-0.44 ± 0.046
16,DEDELTGILKKLSLEKYQPIFEEQEVDMEAFLTLTDGDLKELGIKTDGSRQQELAAISELNAG [I53E],-0.319 ± 0.063
17,DEDELTGILKKLSLEKYQPIFEEQEVDMEAFLTLTDGDLKELGIKTDGSRQQHLAAISELNAG [I53H],-0.481 ± 0.07
18,DEDELTGILKKLSLEKYQPIFEEQEVDMEAFLTLTDGDLKELGIKTDGSRQQDLAAISELNAG [I53D],-0.33 ± 0.12
19,DEDELTGILKKLSLEKYQPIFEEQEVDMEAFLTLTDGDLKELGIKTDGSRQQQLAAISELNAG [I53Q],-0.686 ± 0.063
20,DEDELTGILKKLSLEKYQPIFEEQEVDMEAFLTLTDGDLKELGIKTDGSRQQWLAAISELNAG [I53W],-0.904 ± 0.069
21,DEDELTGILKKLSLEKYQPIFEEQEVDMEAFLTLTDGDLKELGIKTDGSRQQRLAAISELNAG [I53R],-0.559 ± 0.052
